Assay results published in publication PMC5737520 (Nucleic Acids Research, 2017).

T1: uS13c, chloroplast ribosomal protein S13 (spinach (Spinacia oleracea) (endogenous …, UniProt P82163 48-172))
T1 sequence (looked up): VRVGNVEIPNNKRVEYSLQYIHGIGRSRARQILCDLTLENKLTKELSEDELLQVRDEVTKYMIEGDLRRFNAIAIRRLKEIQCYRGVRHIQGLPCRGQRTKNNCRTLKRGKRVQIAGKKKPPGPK

T2: bS1c, chloroplast ribosomal protein S1 (spinach (Spinacia oleracea) (endogenous …, UniProt P29344 42-411))
T2 sequence (looked up): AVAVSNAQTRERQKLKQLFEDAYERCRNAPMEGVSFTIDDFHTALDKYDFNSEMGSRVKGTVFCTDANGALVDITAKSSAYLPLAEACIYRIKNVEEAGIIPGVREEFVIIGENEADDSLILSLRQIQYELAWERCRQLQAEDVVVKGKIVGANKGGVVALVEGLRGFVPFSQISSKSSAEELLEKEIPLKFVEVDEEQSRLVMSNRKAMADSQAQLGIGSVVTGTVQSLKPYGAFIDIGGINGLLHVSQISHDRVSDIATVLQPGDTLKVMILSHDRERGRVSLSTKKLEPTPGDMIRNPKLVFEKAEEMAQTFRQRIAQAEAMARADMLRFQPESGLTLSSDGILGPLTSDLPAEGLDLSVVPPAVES


Columns and labels:
[1] = target: T1, uS13c, chloroplast ribosomal protein S13; experiment: cryo-EM structure
[2] = target: T2, bS1c, chloroplast ribosomal protein S1; experiment: cryo-EM structure

binding result [1]	binding result [2]	Binder
binds		GRGDRKTAKGKRFNHSFGNARPKNKNKGRGPPKAPIFPKGDPSQKED (natural protein, UniProt P47910 55-101, looked up) [bTHXc (PSRP4), plastid-specific ribosomal protein of the chloroplast ribosome small subunit]
	binds	uS2c, chloroplast ribosomal protein S2 (natural protein, UniProt P08242 1-236, looked up) MTRRYWNINLEEMMEAGVHFGHGTRKWNPRMSPYISAKCKGIHIINLTRTARFLSEACDLVFDASSRGKQFLIVGTKNKAADSVARAAIRARCHYVNKKWLGGMLTNWSTTETRLHKFRDLRMEQTAGRLARLPKRDAAVVKRQLSHLQTYLGGIKYMTGLPDIVIIVDQQEEYTALRECITLGIPTICLIDTNCNPDLADISIPANDDAIASIRLILTKLVFAICEGRSSYIRNP
